The assay addresses T1, Monomeric human ASC-His (recombinant full-length ASC) (human, UniProt Q9ULZ3 1-195).
T1 construct: ASC (apoptosis-associated speck-like protein containing a CARD), human, recombinant full-length, monomeric; The methods list ASC-His and ASC-GFP-His; also called apoptosis-associated speck-like protein containing a caspase recruitment domain; monomeric recombinant human ASC; source: E. coli BL21(DE3), purified from inclusion bodies (Nickel beads, size exclusion chromatography)
Briefly: limited proteolysis-coupled mass spectrometry (LiP-MS); purified monomeric recombinant ASC incubated with monomeric recombinant human SAA1, 15 min at 37 °C in LiP buffer (100 mM HEPES pH 7.4, 150 mM KCl, 1 mM MgCl2); proteinase K 1:100 (w/w) 5 min at 37 °C; ASC peptides compared with and without SAA1. The settings on record: both partners purified.

T1 sequence (Q9ULZ3 whole entry, the tested form may be a part): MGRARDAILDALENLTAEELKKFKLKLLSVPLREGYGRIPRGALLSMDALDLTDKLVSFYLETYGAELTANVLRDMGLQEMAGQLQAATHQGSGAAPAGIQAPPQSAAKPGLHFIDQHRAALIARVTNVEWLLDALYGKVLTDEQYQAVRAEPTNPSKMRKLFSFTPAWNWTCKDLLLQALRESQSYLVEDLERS

B1: recombinant human SAA1 (natural protein, UniProt P0DJI8 19-122, looked up)
chain: RSFFSFLGEAFDGARDMWRAYSDMREANYIGSDKYFHARGNYDAAKRGPGGAWAAEVITDARENIQRFFGHGAEDSLADQAANEWGRSGKDPNHFRPAGLPEKY
notes: Serum amyloid A-1 (SAA1), human, recombinant; The assay format tells the two apart; How the fibrils were made is not described; also called serum amyloid A; monomeric recombinant human SAA1
With B1, the binding result was “binds”.

The values are drawn from paper PMC11393341, “The ASC inflammasome adapter governs SAA-derived protein aggregation in inflammatory amyloidosis” (EMBO Molecular Medicine, 2024).
